Source: patent publication US20180071818, “A PROCESS FOR THE PREPARATION OF BIO-ORGANIC COATED GOLD AND SILVER NANOPARTICLES USING BLUE LIGHT” (Council of Scientific & Industrial Research, published 2018)

Target: Gelsolin (full-length) (Homo sapiens, UniProt P06396 P06396:28-782)
Assay: ELONA; aptamer-Ag nanoparticles coated directly, gelsolin 2 ug/well, anti-gelsolin detection; room temperature
Conditions: tags: Sigma; His tag inferred from capture by anti-His antibody; label: silver nanoparticle
Experimental: In case of aptamer based Ag nanoparticles formation, reaction mixture was prepared by adding 18 μl of Aptamer 10.10R (SEQ ID No. 8) (4.86 μg/μl or 18 pmoles/μl) in each 0.2 ml of reaction volume of buffer (25 mM tris pH 8, 150 mM NaCl, 5 mM MgCl₂, 10 mM KCl, 0.01% tween and 2 mM CaCl₂) with 7.2 μl of AgNO₃ of 5 mM stock solution to form Ag nanoparticles. The final molar ratio of silver ions to aptamer 10.10R was kept constant at […]. Treated the ELISA plate with 1 μg/well streptavidin (1 mg/ml) and incubated the plate overnight at 4° C. For aptamer based Ag nanoparticles coating streptavidin was not used. The wells were blocked with 3% bovine serum albumin (BSA) in PBS and kept at room temperature for 2 hours to saturate excess binding sites. The wells were then washed three times with PBST and further added with 5, 10 and 20 μl of aptamer only and aptamer Ag nanoparticles (18 pmoles/μl), making aptamer working concentration of […]. All the coatings were performed in duplicates for two conditions one with and one without gelsolin in next step. […] The absorbance was measured with a multiskan ELISA reader at 450 nm.
It was observed that the coated aptamer or aptamer_Ag nanoparticles were captured by gelsolin which was further detected using anti-gelsolin antibody using an indirect ELISA based method (FIG. 4C). […]

Chain of Gelsolin (full-length) (P06396 28-782, one chain of several): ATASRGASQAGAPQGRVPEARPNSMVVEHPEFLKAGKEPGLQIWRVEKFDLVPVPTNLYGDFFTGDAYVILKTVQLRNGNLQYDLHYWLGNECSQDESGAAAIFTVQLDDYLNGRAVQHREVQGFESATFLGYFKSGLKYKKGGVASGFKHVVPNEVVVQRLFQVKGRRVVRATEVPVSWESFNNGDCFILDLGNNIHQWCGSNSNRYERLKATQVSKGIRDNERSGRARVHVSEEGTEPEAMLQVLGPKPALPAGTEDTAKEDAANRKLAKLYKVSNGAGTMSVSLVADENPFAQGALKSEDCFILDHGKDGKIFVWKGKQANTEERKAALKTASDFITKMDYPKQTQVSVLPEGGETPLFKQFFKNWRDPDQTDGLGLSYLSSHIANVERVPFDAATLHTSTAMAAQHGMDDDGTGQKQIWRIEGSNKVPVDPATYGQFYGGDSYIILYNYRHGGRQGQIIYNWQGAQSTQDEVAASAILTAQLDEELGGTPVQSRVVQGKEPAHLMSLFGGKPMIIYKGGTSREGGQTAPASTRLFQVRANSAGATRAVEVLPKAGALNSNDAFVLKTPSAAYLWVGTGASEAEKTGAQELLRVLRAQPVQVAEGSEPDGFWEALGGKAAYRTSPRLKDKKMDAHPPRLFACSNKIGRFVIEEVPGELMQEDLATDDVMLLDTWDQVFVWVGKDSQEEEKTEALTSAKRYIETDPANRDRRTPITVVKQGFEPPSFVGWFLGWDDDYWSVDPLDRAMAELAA

B1: Aptamer 10.10R coated on Ag nanoparticles (ssDNA)
DNA: TCAAGTGGTCATGTACTAGTCAAGCACTTTCGCTGCTCGCTGGCGCCGCGCCCATCATATGTCCTTCTCTTCCCTA
B1 gave a binding signal of 3 fold vs aptamer only.
